Paper PMC13094992, “Genetic complementation reveals structure-function links in nodavirus RNA replication complex crowns” (PLOS Pathogens, 2026)

Molecular target: the molecule itself
Assay: negative-stain electron microscopy (2D classification, 3D reconstruction)

Protein | binding result
FHV protein A H93A, C-terminal alfa tag (natural protein, also called RNA capping null mutant H93A; not shown: ALFA tag, C-terminal, kept) MTLKVILGEHQITRTELLVGIATVSGCGAVVYCISKFWGYGAIAPYPQSGGNRVTRALQRAVIDKTKTPIETRFYPLDSLRTVTPKRVADNGAAVSGAVRDAARRLIDESITAVGGSKFEVNPNPNSSTGLRNHFHFAVGDLAQDFRNDTPADDAFIVGVDVDYYVTEPDVLLEHMRPVVLHTFNPKKVSGFDADSPFTIKNNLVEYKVSGGAAWVHPVWDWCEAGEFIASRVRTSWKEWFLQLPLRMIGLEKVGYHKIHHCRPWTDCPDRALVYTIPQYVIWRFNWIDTELHVRKLKRIEYQDETKPGWNRLEYVTDKNELLVSIGREGEHAQITIEKEKLDMLSGLSATQSVNARLIGMGHKDPQYTSMIVQYYTGKKVVSPISPTVYKPTMPRVHWPVTSDADVPEVSARQYTLPIVSDCMMMPMIKRWETMSESIERRVTFVANDKKPSDRIAKIAETFVKLMNGPFKDLDPLSIEETIERLNKPSQQLQLRAVFEMIGVKPRQLIESFNKNEPGMKSSRIISGFPDILFILKVSRYTLAYSDIVLHAEHNEHWYYPGRNPTEIADGVCEFVSDCDAEVIETDFSNLDGRVSSWMQRNIAQKAMVQAFRPEYRDEIISFMDTIINCPAKAKRFGFRYEPGVGVKSGSPTTTPHNTQYNGCVEFTALTFEHPDAEPEDLFRLIGPKCGDDGLSRAIIQKSINRAAKCFGLELKVERYNPEIGLCFLSRVFVDPLATTTTIQDPLRTLRKLHLTTRDPTIPLADAACDRVEGYLCTDALTPLISDYCKMVLRLYGPTASTEQVRNQRRSRNKEKPYWLTCDGSWPQHPQDAHLMKQVLIKRTAIDEDQVDALIGRFAAMKDVWEKITHDSEESAAACTFDEDGVAPNSVDESLPMLNDAKQTRANPGTSRPHSNGGGSSHGNELPRRTEQRAQGPRQPARLPKQGKTNGKSDGNITAGETQRGGIPRGKGPRGGKTNTRRTPPKAGAQPQPSNNRK | binds
FHV protein A D692E, C-terminal alfa tag (natural protein, also called RNA polymerase null mutant D692E; not shown: ALFA tag, C-terminal, kept) MTLKVILGEHQITRTELLVGIATVSGCGAVVYCISKFWGYGAIAPYPQSGGNRVTRALQRAVIDKTKTPIETRFYPLDSLRTVTPKRVADNGHAVSGAVRDAARRLIDESITAVGGSKFEVNPNPNSSTGLRNHFHFAVGDLAQDFRNDTPADDAFIVGVDVDYYVTEPDVLLEHMRPVVLHTFNPKKVSGFDADSPFTIKNNLVEYKVSGGAAWVHPVWDWCEAGEFIASRVRTSWKEWFLQLPLRMIGLEKVGYHKIHHCRPWTDCPDRALVYTIPQYVIWRFNWIDTELHVRKLKRIEYQDETKPGWNRLEYVTDKNELLVSIGREGEHAQITIEKEKLDMLSGLSATQSVNARLIGMGHKDPQYTSMIVQYYTGKKVVSPISPTVYKPTMPRVHWPVTSDADVPEVSARQYTLPIVSDCMMMPMIKRWETMSESIERRVTFVANDKKPSDRIAKIAETFVKLMNGPFKDLDPLSIEETIERLNKPSQQLQLRAVFEMIGVKPRQLIESFNKNEPGMKSSRIISGFPDILFILKVSRYTLAYSDIVLHAEHNEHWYYPGRNPTEIADGVCEFVSDCDAEVIETDFSNLDGRVSSWMQRNIAQKAMVQAFRPEYRDEIISFMDTIINCPAKAKRFGFRYEPGVGVKSGSPTTTPHNTQYNGCVEFTALTFEHPDAEPEDLFRLIGPKCGEDGLSRAIIQKSINRAAKCFGLELKVERYNPEIGLCFLSRVFVDPLATTTTIQDPLRTLRKLHLTTRDPTIPLADAACDRVEGYLCTDALTPLISDYCKMVLRLYGPTASTEQVRNQRRSRNKEKPYWLTCDGSWPQHPQDAHLMKQVLIKRTAIDEDQVDALIGRFAAMKDVWEKITHDSEESAAACTFDEDGVAPNSVDESLPMLNDAKQTRANPGTSRPHSNGGGSSHGNELPRRTEQRAQGPRQPARLPKQGKTNGKSDGNITAGETQRGGIPRGKGPRGGKTNTRRTPPKAGAQPQPSNNRK | binds
